Laboratory results taken from the DeepSol protein solubility set.

Experiment: soluble on expression in E. coli; label from the status in PepcDB or PDB records

Row | Sequence | soluble on expression in E. coli
1 | AHHHHHHGSLEKLLEQAGIKLDFDGEEEKKSEIVDEFSGYKINIAVVGVGGSGNNTISRLYDLGVQGADLIAMNTDAQHLAITKAHKKVLLGKHITQGKGSGGDPKVGYLAAEASAQEIAAAVDGYDLVFITAGMGNGTGTGAAPVVARIVKETARNNGRFQEPLVVSVVTFPFKTEGTVRIEKAKWGIQRLLEYSDTVIIIQNDKLLELVPKLPLQSAFRFADELIARMVKGIVETIKLNSIVNIDFADVYSIMKGGGPALIGIGESDSNNRAVDAVNNALTNKMLDVEFGSGEKALVHFTIGPDVSLEEINKAMEVVYEKLSEKSEIKWGAMVDPEMGKTVRAMVIMTGVRSPYILGNVNALTDSSSWVVPKDRRLIGDPRIEKMFPDFNGSRAGRKRPSVGDAILKELGFKEL | soluble
2 | AHHHHHHGSLLPDWKIRKEILIEPFSEESLQPAGYDLRVGREAFVKGKLIDVEKEGKVVIPPREYALILTLERIKLPDDVMGDMKIRSSLAREGVIGSFAWVDPGWDGNLTLMLYNASNEPVELRYGERFVQIAFIRLEGPARNPYRGNYQGSTRLAFSKRKKL | soluble
3 | AHHHHHHGSRYFFYPNSVAIFGSFREGAIAREILRNIVEGGFEGKIIPVNPKGGEVEVAGKKFNIKEKLDEPVDVSIIAIPAKLVPELIRGLKGLTKGAVVISAGFSEVGNVELEKELIKAAKEAGIRVIGPNCAGIFGVHAKFYGSFEVRVNPGGLALISQSGAFGGAALAMGNEEGIGFSAFVSYGNAADLDESDFLRFFADDENTRVIGLYIEGVKDGRKFLDALRYAASKKPVIILKAGKSRAGARAAASHTGSLAGSYEIYRAAFRQAGAIEVEEMEELFDAAKAFEMYERAGRRVAIITNSGGPGVLATDKLERLGLEIAKLTEETVEELRSFLPPQCSVKNPVDLIADADYERYKRAIEVVCRDENVDAILVICVPPIFIPSEEIARAVVEANCDKPIIVNFMAGELVREGIKILESKKIKNFPTPERAAKALYWLSLRSSSE | soluble
4 | AHHHHHHGSSEVYRLTCIVCPLSCSIEVEIEAGKIKDIKGYTCPRGKEWAIEEIRAPKRVVMSVIPVEGGKLPTVSVKTEKPIPKDKIPELMKMLAKLKLKAPVKVGQVVGEFEGVKIIATREA | soluble
5 | AHHHHHHGSVEQDPYEIVIKQLERAAQYMEISEEALEFLKRPQRIVEVTIPVEMDDGSVKVFTGFRVQHNWARGPTKGGIRWHPEETLSTVKALAAWMTWKTAVMDLPYGGGKGGIIVDPKKLSDREKERLARGYIRAIYDVISPYEDIPAPDVYTNPQIMAWMMDEYETISRRKTPAFGIITGKPLSIGGSLGRIEATARGASYTIREAAKVLGWDTLKGKTIAIQGYGNAGYYLAKIMSEDFGMKVVAVSDSKGGIYNPDGLNADEVLKWKNEHGSVKDFPGATNITNEELLELEVDVLAPAAIEEVITKKNADNIKAKIVAEVANGPVTPEADEILFEKGILQIPDFLCNAGGVTVSYFEWVQNITGYYWTIEEVRERLDKKMTKAFYDVYNIAKEKNIHMRDAAYVVAVQRVYQAMLDRGWVKH | soluble
6 | AHPLENAWTFWFDNPQGKSRQVAWGSTIHPIHTFSTVEDFWGLYNNIHNPSKLNVGADFHCFKNKIEPKWEDPICANGGKWTISCGRGKSDTFWLHTLLAMIGEQFDFGDEICGAVVSVRQKQERVAIWTKNAANEAAQISIGKQWKEFLDYKDSIGFIVHEDAKRSDKGPKNRYTV | soluble
7 | AIAAAVKDSCGKGEMATGNGRRLHLGIPEAVFVEDVDSFMKQPGNETADTVLKKLDEQYQKYKFMELNLAQKKRRLKGQIPEIKQTLEILKYMQKKKESTNSMETRFLLADNLYCKASVPPTDKVCLWLGANVMLEYDIDEAQALLEKNLSTATKNLDSLEEDLDFLRDQFTTTEVNMARVYNWDVKRRNKDDSTKNKA | soluble
8 | AIAALKDYALEKEKVKKFLQEFYQDDELGKKQFKYGNQLVRLAHREQVALYVDLDDVAEDDPELVDSICENARRYAKLFADAVQELLPQYKEREVVNKDVLDVYIEHRLMMEQRSRDPGMVRSPQNQYPAELMRRFELYFQGPSSSKPRVIREVRADSVGKLVTVRGIVTRVSEVKPKMVVATYTCDQCGAETYQPIQSPTFMPLIMCPSQECQTNRSGGRLYLQTRGSRFIKFQEMKMQEHSDQVPVGNIPRSITVLVEGENTRIAQPGDHVSVTGIFLPILRTGFRQVVQGLLSETYLEAHRIVKMNKSEDDESGAGELTREELRQIADVIFATVRELVSGGRSVRFSEAEQRCVSRGFTPAQFQAALDEYEELNVWQVNASRTRITFV | soluble
9 | AIACGDCVEKEYPNRGNTCLENGSFLLNFTGCAVCSKRDFMLITNKSLKEEDGEEIVTYDHLCKNCHHVIARHEYTFSIMDEFQEYTMLCLLCGKAEDTISILPDDPRQMTLLF | soluble
10 | AIADEEEEISVVQDMAYDYSGKRLATVSIDREICIWNKKDDWQRTYQWKAHEGPLFGVSWAHPCFGNILATGSYDKRVIIWEEPEASSSYSSSSMDKSTKGWTALAHLVDARDEVRQVQFAPPHLGLLLASGSADGYVRIYTCIDEADLHQWPLLTELDMDSPVVGMSWNPSVDSIPLIVVASHKDCRVWSMDNDTRRWTDWHLFRTSESDTADLSAVAWAPHVGRSFERIALGCEDGSILLFQFPRIQQGNKTNGHEMQPICRLNHGNERIVRLQWNMVGSILASSASDRMVRLWKALPQDGTRWNCFDVVHLNE | soluble
11 | AIAGTHSGHERNGESARGGALQRLERRLAAAWAEQDAYQIEQLAGMIYDRLVRSDPSAAATVLEQNAHRLAVAGKPAEAAELATRLIRHWRELEQRPFYLARLQQMVLEPLQALSGVEAARARTMVLEAVLAWKRASATVDTEEAAPAELAPVQDALVDAYVLCGEWARAQYQVVCRGGPAERDLAFIDEQLGPHLANDVERMLARTRLVLFYVLAGNLKAGRALVEEIQRKHPTAPMTNFVVILMQVLERARNVDSSKRRLLRNFCDDLKRVYHWAFSLDPELDAMLDDVLKAQGL | soluble
12 | AIAKILLVFDFDNTIIDDNSDTWIVQCAPNKKLPIELRDSYRKGFWTEFMGRVFKYLGDKGVREHEMKRAVTSLPFTPGMVELFNFIRKNKDKFDCIIISDSNSVFIDWVLEAASFHDIFDKVFTNPAAFNSNGHLTVENYHTHSCNRCPKNLCKKVVLIEFVDKQLQQGVNYTQIVYIGDGGNDVCPVTFLKNDDVAMPRKGYTLQKTLSRMSQNLEPMEYSVVVWSSGVDIISHLQFLIKD | soluble
13 | AIANDDRATAFNALKNKTVCVQGDGNSRQFYHALVEILSNHSSAIPVNKNGNDFCNAPFAQCPQDTYYFDLVDKSDNLSVKLYWRWAPEFSDIECPMKVPSGFTPGSNYSFPSGPDTLSCDINIMDAGQWELFEKDANVTTAGYSQGVSNLSKCFSSDKSAKYFWIAAYALTPEQLQIHLPYNNTDVERINEVATQGLNSTACVLNGYDVTVNAFNDTKEATTDGIHYLGWINEQVVHLFFNAVTNSSAPTVPSSNVSVTSPNVQLGQVPNLNPSTTNSFLPVQTIVTVPSSSATSASSGLNFGGSSQGGGSGIPQL | soluble
14 | AIASAADDVNKKRKTAKEVEQEECEIYQNVVFNSIVDSNSKHELVDPSLQKLGAKSRGKVTFLLEQASLELVKIDRKWEILNGDEHQQYMKRKNLNPADYRPDIVHQCVLSLLDSPLNKAGYLDLYIHTTNNVLIKVNPQTRIPRTLKRFCGLTVQLLQDLKIFGHGLNKPLLQIIQNPITNHLPDMCWKTVCSYNCENLMSPHKHAQEVLKKDMNILYVIGAMAHGKIVEEWADEELKISSFPLSASAVCHRICSAYEILYEVL | soluble
15 | AIAVFWGKPLASPRESPRAPGENGKRALHFCAVDEDFVRLFYSFFKSLVGKDVVVELKNDLSICGTLHSVDQYLNIKLTDISVTDPEKYPHMLSVKNCFIRGSVVRYVQLPADEVDTQLLQDAARKEALQQKQ | soluble
16 | AKDAAFTVDGLSLTSKTNTVSTAISGMTFDLVAPSAAGATTTVTVATNTDGLKASLQSFVDSYNTLATLVTSLTKGSISDKGVFTAAALTGDATPRALLATIRDQLAGASSRAGLSALSQLGIKTQQSNGTLSLDTATFTAALNDKKLGSQIQTMFTGTGATNADGTVDGGLVARMSKALLPYTKADGVLASKTSSLTKVQTRIASDQDALDRRIESLTASLTKKYNAMDLVVGQLKATATSITSIFEAMNAQKNAS | not soluble
17 | ALEGTEFARSEGASALASVNPLKTTVEEALSRGWSVKSGTGTEDATKKEVPLGVAADANKLGTIALKPDPADGTADITLTFTMGGAGPKNKGKIITLTRTAADGLWKCTSDQDEQFIPKGCSR | soluble
18 | ALQAGRLGSTVFVANLDYKVGWKKLKEVFSMAGVVVRADILEDKDGKSRGIGTVTFEQSIEAVQAISMFNGQLLFDRPMHVKMDERALPKGDFFPPERPQQ | soluble
19 | ALSGGFIKGFAHLGVIQALLEHDIKPDIISGVSAGALAGVFYADGNEPYRVLDYFSGHKFQDLTKLVIPKVGLFALGEFIDFLKSNLKAQKLEDLKLPLIITATDLDHGRSMHFHKGNIAERVAASCCMPVLFTPVKIGNTHYVDGGLLMNLPVSTIRNECEKVVAVNVSPLMAEKYKMNIVSIAMRSYHFMFRANTFPERDNCDLLIEPYNLEGYSNTELEKAEEIFEQGYNTASE | not soluble
20 | ALTEEILNAQPNPICVKDRNLHYIAVNKAFSAIHDLAPDAMLGRSASDLVETELAEHFERSDRHVLETGTPYSEAEHIVRADGSDLWVVTRKYRVGLPDRHFVVTCMNDVT | not soluble
21 | APEWTEEDLSQLTRSMVKFPGGTPGRWEKIAHELGRSVTDVTTKAKQLKDSVTCSPGMV | soluble
22 | AQVDLLNVKGEKVGTLEISDFVFNIDPNYDVMWRYVDMQLSNRRAGTASTKTRGEVSGGGRKPWPQKHTGRARHGSIRSPIWRHGGVVHGPKPRDWSKKLNKKMKKLALRSALSVKYRENKLLVLDDLKLERPKTKSLKEILQNLQLSDKKTLIVLPWKEEGYMNVKLSGRNLPDVKVIIADNPNNSKNGEKAVRIDGLNVFDMLKYDYLVLTRDMVSKIEEVLG | soluble
23 | ARLGNWEFDLETNVFTCSEESCRIFGIRDHRQGKSHRALMRRVHPEDRVTVKKAIFQAFRTGVGYCMDHRIVLDDGVERIVSQHAELLSADDGRTSRLVGTVHDIT | not soluble
24 | ASHHLRMHFKTLPAGESLGSLGLWVWGDVDQPSKDWPNGAITMTKAKKDDYGYYLDVPLAAKHRQQVSYLINNKAGENLSKDQHISLLTPKMNEVWIDENYHAHAYRPLKEGYLRINYHNQSGHYDNLAVWTFKDVKTPTTDWPNGLDLSHKGHYGAYVDVPLKEGANEIGFLILDKSKTGDAIKVQPKDYLFKELDNHTQVFVKDTDPKVYNNPYYID | soluble
25 | ASNIHRIQQIVEAAERYNRKVAVSGRSMENIVAVAIELGYLKVKEGVLIGIDAINRYADNKIVIITTGSQGEPMSALTRMAAQEHKKVKIQEGDMVVISANPIPGNEKLVSRVINQLFKKGAEVIYEALADVHVSGHACQEELKLMHTLIKPRFFIPVHGEYRHLKQHKELATNLGMPKANVVIPEIGGVIELTRSSIKKTDTVVAGKVFVDGLGVGDVGNIVLRDRKHLSQDGIVTVVVTIEKVSGTVIAGPDIISRGFVYVRESEDLMEESKEIVKTALLECEEKHITEWATIKSNIKDVLRIFLYERTKRKPMILPIIME | not soluble
